Assay: soluble on expression in E. coli; label from the status in PepcDB or PDB records

Row | Sequence | soluble on expression in E. coli
1 | MGSDKIHHHHHHMKRRDFLITSAAALSFLLSGCAIGDRVVEEPLTPKSNPPRKSVVYVLKTERREEAVSKLMQNFSDFEGSTVGLKANYNSADPFPASTHPKTLSAIVDVLKEQKAEVFMAERSGMGNTSAVLKTMGILDLAREKGFTVIDLDSYDGWVLHQPEDSHWKKGYPFADIFLTVDSVIQTCCLKTHRFGGHFTMSLKNSVGMVARRWKGHDYMSELHTSPHMRKMIAEINVSYSPKIVIMDAIKGFSHGGPERGTVIEPGLMIASNDRVAIDAVGVAILRIHGTTPEVSKGSVFEQEQIARAIEIGLSSGEFEIIPANDDAEKICSEIEAVLWG | not soluble
2 | MGSDKIHHHHHHMKRSGKVYIIGAGPGEEELITLKAIRKMKECTAVLYDRLVGQGILKYLNEKCEIYYCGKEPGCHYKTQDEINEMIIKLAKEGHIVGRIKGGDPYIFGRGGEEGLSLLKENIEFEVISGVTSPVAVLNYAGIPVTHRGIARSFHVFTAKTANDDSINFSAAAKIDGTLIFLMGYRQLNDITRKLIENGMDSKMPCAVVMRGTTSLQKKVIGNLSDIKEKCDNANMTSPCIIVVGKVVGFNQQLNWYEKKPLFGRNICITRSKNQSKTMREELLDLGAEVTEVHSIEIENTASNLEEYINKISEYDYIILTSVNAVEVLFDYLASKDYDVRKVRAKFAVIGNATKEALKKRGIVPEIVSRKHNGEGLFDEIRGYLKKDDKIFIPRSENSRKYIKEQLVSLGLSVDECFIYRTVPGKLYDKAAFENADTIVFTSPSTVKNMIALFGEKNIKKKSIIAIGPITGRELGKINAEYSTCSECSVDAIIRECLNSDK | not soluble
3 | MGSDKIHHHHHHMKRVSVVILNWNGVDMLRKFIPSVMDNSVGEGIEICVADNASSDGSLEMLRSEFPVVRLIELDQNYGFAEGYNRALEQVDAEYVVLLNSDVEVTPHWLEPLLDYMDTHSGTVACQPKLLSWHNKEYFEYAGASGGFIDRYGYPFCRGRIFDVVEKDCGQYDTITEVMWVTGAALFIRLADYREVGGLDGHFFAHMEEIDLCWRLRSRGKKLVCIPQSVVYHVGGATLKKENPRKTFLNFRNNLLMLYKNLPDKELEHVLFIRGILDRVAALVFYLKKDRANARAVMQARREFEDIRYSFAASRIENMMKSTDEIIPERTHFSIVMKYYLLGKKHFSQLKLF | not soluble
4 | MGSDKIHHHHHHMKRVVITGMGIVSPFGVGKERNLEGLRETKVTIDRISSFDASNLPVQIAAEVRDFKPEEYINPKLVRRTDRFVHFALVSAKEAVEDAGINFEPYADRTATIIGSGMGGFLTLDSENNKFLSQGPSRVSPFLIPMILIDMASGVVAMEYGLKGPNFSSVSACASSLHAVALGALLIRHGYADVAVVGGTEATIAPLPITGFANMRALSRRNDDPKRASRPFDKDRDGFVMGEGGAVLILEAEEVAKSRGAKILAEIKGVGMTDDAYHFSAPDPEGRGAAEAMKLALKESSLAVEDIDYVSCHATSTPAGDEAELKAIKKVLGEHVKNVAINSSKALIGHLLGAAGASELVLAILQMQNSFVHGMPNLDNPIDEAKGTGLVGKEPVQMEIKNFIKNSFGFGGHNVSIVVGRYES | not soluble
5 | MGSDKIHHHHHHMKSSQPFIYEAHAARVVFGAGSSSQVAAEVERLGAKRALVLCTPNQQAEAERIADLLGPLSAGVYAGAVMHVPIESARDATARAREAGADCAVAVGGGSTTGLGKAIALETGMPIVAIPTTYAGSEVTPVYGLTEAGTKRTGRDPRVLPRTVIYDPALTVGLPRGLSVTSALNAIAHAAEGLYARDANPVMSLMAEEGIRALAAGIPAVFNDPADLDARSQCLYGAWLCGTVLGGVGMALHHKLCHTLGGSFNLPHAETHTIVLPHALAYNAAAVPEAMARIRRATGAGEQSAAATLFDLAQRHGAPVALRDIGMREEDLDRAADIALASPYWNPRPIEREPIRALLQAAYEGVRPD | not soluble
6 | MGSDKIHHHHHHMKSTGNIIADTICRTAELGLTITGASDAGDYTLIEADALDYTSTCPECSQPGVFRHHTHRMLIDLPIVGFPTKLFIRLPRYRCTNPTCKQKYFQAELSCADHGKKVTHRVTRWILQRLAIDRMSVHATAKALGLGWDLTCQLALDMCRELVYNDPHHLDGVYVIGVDEHKWSHNRAKHGDGFVTVIVDMTGHRYDSRCPARLLDVVPGRSADALRSWLGSRGEQFRNQIRIVSMDGFQGYATASKELIPSARRVMDPFHVVRLAGDKLTACRQRLQREKYQRRGLSQDPLYKNRKTLLTTHKWLSPRQQESLEQLWAYDKDYGALKLAWLAYQAIIDCYQMGNKREAKKKMRTIIDQLRVLKGPNKELAQLGRSLFKRLGDVLAYFDVGVSNGPVEAINGRLEHLRGIALGFRNLNHYILRCLIHSGQLVHKINAL | not soluble
7 | MGSDKIHHHHHHMKSVGQALENQGRVPRNTNDELIQMILADAQVAEFIKTHQLSQREINISMSKFNQFLIERQKFKNKDSQYIAKGYEPILVMNEGYADVSYLETRELIEAQKKQAISDRINLVNLPKSYRNIRMTDFDINNESRMKAMSQLLDFVETYPSYNHKGLYLYGDMGVGKSYLMAAMARELSERKGVSTTLLHFPSFAIDVKNAISSGTVKDEIDAVKSVPILILDDIGAEQATSWVRDEILQVILQHRMLEELPTFFTSNYSFNDLERKWANIKGSDETWQAKRVMERVRYLAIEFHLEGPNRR | not soluble
8 | MGSDKIHHHHHHMKTERLISYLRPGRWPSVWCPGCGNGIVLKAFLEAVDDLALPKEKVAVVSGIGCSSRATGYLDFNTLHTLHGRAIAFATGVKLAKPDFEVVVMGGDGDILSIGGNHFIHACRRNIDITVVIFNNMIYGMTGGQVSSTTPQYYQTSTTPLGAFEKPFDAVEIALSAGATFVARSTVYHYDHLVRVLKKALQHRGISVVDVLTNCHTYFGRYNGMPEPHQMMEYFKNNTCFLERPEEGKIKIGIFREEEKEDFLTVYRRLTRKEGAME | not soluble
9 | MGSDKIHHHHHHMKTVTRYACQKCGYQSAKWLGKCPDCAAWNSFVEEVTGGGRKGAASLPAATRPVPICDVASEAETRLSCGISEFDRVLGGGLVSGSLVLIGGDPGIGKSTILLQVMDHLARTAGPVLYVSGEESARQTKMRGERLGIGARELLVLAETSLELILSQVTALAPRALVIDSIQTVFSANLESAPGSVSQVRECAGRLMELAKRNGIPTLLVGHVTKDGSLAGPRVLEHMVDTVLYFEGDPGHAFRILRAVKNRFGSTNEIGVFEMKEGGLSEVRNPSELFLAERPLGVSGSAVVTTIEGSRPLLVELQALVTPSSLGVPRRTTLGVDHNRLALLVAVLDKKVGLHLSGQDIFLNAAGGARLSEPAIDLGMVAALASSHLDKIIDPHTVIVGEVGLAGEVRAITQAETRVREAAKLGFTRAVIPAGSVRQVGDVPGMNVVGVKSLDEALEQLF | not soluble
10 | MGSDKIHHHHHHMKVAVIGAKGQLGTDLVDVLKEEFTVYPLTHEDVDVAVSESLEVLRDIHPDVIINTAAYVRVDDAENHAEKAFAVNAIGALNVARISSEIDAVNIYISTDYVFDGEKGEPYVETDKPNPINVYGASKYAGEILTKNYSEKHYVIRVASLYGKAGASGKGGNFVNWVVDMARKGQELRIVADQFMSPTYTKDVALAVREFLKLRPDYGIYHMVNDGYCSWFEFTKAIFEILDWDVEIQPIKSSELNRLARRPAFSALQNYKLERIGIKMRHWREALRDYLAEKGLV | not soluble
11 | MGSDKIHHHHHHMKVLFRSDSSSQIGFGHIKRDLVLAKQYSDVSFACLPLEGSLIDEIPYPVYELSSESIYELINLIKEEKFELLIIDHYGISVDDEKLIKLETGVKILSFDDEIKPHHCDILLNVNAYAKASDYEGLVPFKCEVRCGFSYALIREEFYQEAKENREKKYDFFICMGGTDIKNLSLQIASELPKTKIISIATSSSNPNLKKLQKFAKLHNNIRLFIDHENIAKLMNESNKLIISASSLVNEALLLKANFKAICYVKNQESTATWLAKKGYEVEYKY | not soluble
12 | MGSDKIHHHHHHMKVLVAMDEFHGIISSYQANRYVEEAVASQIETADVVQVPLFNGRHELLDSVFLWQSGQKYRIPVHDADMNEVEGVYGQTDTGMTVIEGNLFLKGKKPIVERTSYGLGEMIKHALDNDAKHVVISLGGIDSFDAGAGMLQALGAQFYDDEGRVVDMRQGAGVIKYIRRMDMSNLHPKMETARIQVMSDFSSRLYGKQSEIMQTYDAHQLNHNQAAEIDNLIWYFSELFKSELKIAIGPVERGGAGGGIAAVLNGLYQAEILTSHALVDQLTHLENLVEQADLIIFGEGLNENDQLLETTTLRIAELCHKHQKVAIAICATAEKFDLFESQGVTAMFNTFIDMPETYTDFKMGLQIRHYTVQSLKLLKTHFNVEV | not soluble
